Measured values from the supplement of paper PMC9170038.

Tested on: MS2 coat protein
Experiment: apparent KD of MS2 coat protein; designed switch direction (-1 OFF switch, 1 ON switch): -1; higher = weaker reporter binding
Procedure, shortened: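 SNAP-549-labelled MS2 coat protein was titrated, doubling from 0.7 or 1.5 nM to 3 µM, over designed RNA switches transcribed on Illumina chips by stalled E. coli RNA polymerase. Runs were done without input, with 200 uM small-molecule ligand, or with an oligonucleotide input. Apparent KD is the per-design median over clusters of curve-fitted normalised fluorescence.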

[1] = input ligand: microRNA oligo, concentration not stated
[2] = Eterna round: R95, input ligand: microRNA oligo, concentration not stated
[3] = Eterna round: R95, input ligand: FMN 200 uM
[4] = Eterna round: R95, input ligand: none

Sequence	apparent KD of MS2 coat protein (input ligand: FMN 200 uM) [nM]	apparent KD of MS2 coat protein [1] [nM]	apparent KD of MS2 coat protein (input ligand: none) [nM]	apparent KD of MS2 coat protein [2] [nM]	apparent KD of MS2 coat protein [3] [nM]	apparent KD of MS2 coat protein [4] [nM]
AACAGUAGAGGAUAUACAUGAGGAUCACCCAUGUGAUAUUUACGUGGCGUACCACGAAGUAGAAGGCUACUGGA [JL Maslow Revisted mod 14] (Eterna round: R96, puzzle: Exclusion 3)	512	32.5	34.9			
UGAUGACAUGAGGAUCACCCAUGUCAGGAUAUUGAAGUUGAAGUGAAAGCUUCGGCUUCGAGAAGGGACUGUCG [-29.3, -26.3 kcal, A 28% sequence 3] (Eterna round: R97, puzzle: Exclusion 1)	29.5		25			
UAAUGUAUAUAGGAUAUCUAGCUGGUAACAGCUAGAGAAGGAUGUACAUGAGGAUCACCCAUGUAAAUCAGUGA [Ex6/14-B2] (Eterna round: R97, puzzle: Exclusion 6)	186		41.6			
GUAGAGUAAGGAUAUGUAGAAUAGGAUAGAAUGGUUAGAAUACAGAAGGUACAUGAGGAUCACCCAUGUAAUGU [Excluse me!!!! 3 - Jieux - Exclusion 4] (puzzle: Exclusion 4)				17		
UUUUUGUGAGGAUAUCAGUAGUAGAACAAUAGUACUACUACUGAGAAGGCACAUGAGGAUCACCCAUGUUCCUC [Fiskers Ex 4 Super stable 44 mod 9] (puzzle: Exclusion 4)				52.6		
GGGCUGUCAGGAUAUACAUGAGGAUCACCCAUGUCGAGCUAUGAUAGGGCAAGAGUAGGUAGAAGGGACGAGAG [JR_Exclu3_Sub043] (puzzle: Exclusion 3)				32.6	43.7	32.7
UUUAUAAUUUCAAUCUUCGCUGGCAAACUUACGCCAGCCACAUGAGGAUCACCCAUGUUUUUUGUUCGUUUUAUUCU [Xeinzarace] (puzzle: Sensor v3, turn-off variant 2)				49.8	18.8	22.6
GAGUGACAUGAGGAUCACCCAUGUGAGGAUAUCGGACGGACCAAAUUAACAACCGCCGCGAGAAGGCACAUCGG [Exclusion 1 V21] (puzzle: Exclusion 1)				144	130	129
CAUUAGCAAGCGAGAUCCCACAUGAGGAUCACCCAUGUGCUCGUCUUAUAAGGUACUGUGACGAGAGUCACGGUACC [Mat - Sensor, turn-off var - Eli Mod - D42] (Eterna round: R97, puzzle: Sensor, turn-off variant 1)	15.2		16.1			
GAACCAAAAGGAUAUGGCGUAACAAACAUGAGGAUCACCCAUGUCCUCGAUGAAUAUCCGCCAGAAGGUUUGUCUC [Eternabot (L2) Solution 10] (Eterna round: R97, puzzle: Exclusion 5)	1000		1760			
AGCGCCAUCGUGAGAUGGCGUAUUACAUGAGGAUCACCCAUGUAGGAUAUCGAUUGCUUUGCAGUCGAGAAGGGCAUGUUCUAG [JL ENG3 3.80 Mod G] (Eterna round: R96, puzzle: Exclusion NG 3)	82.4	35.8	73.6			
CAAAAGAAAGGAUAUACUUGAGGAUCACCCAAGUAUGCCCGCUGAAGCGGGCCCUUGAGUAGAAGGUUCAUAAA [Ened] (Eterna round: R97, puzzle: Exclusion 3)	33.2		15.6			
UAACGGGUUUCUUCGUUUACAACAUGAGGAUCACCCAUGUUUGAGGAUAUCCACUAAGCUCUUCAGGAGAAGGCAAACAUAAUG [Teanarxe] (Eterna round: R96, puzzle: Exclusion NG 3)	20.6	12.2	15.4			
UUUCGGCAUGUAGGAUAUGGGUCCGAUUAGGAUUUAGAAGGACAUGAGGAUCACCCAUGUGCAUUUAAUUGGUCAUUACCUUUU [EXclNG1-LROPPY10] (Eterna round: R96, puzzle: Exclusion NG 1)		46.5				
